Measurements published in patent publication US20150322414A1 (UNITED KINGDOM RESEARCH AND INNOVATION, published 2015).
Numbering of substitutions follows the chain as printed. Names and notes keep the numbering of the source.

Assays:
[1] = biological target: Wild-type human Tie2 ectodomain (residues 1-442) surface expression construct on DT40 cells (human) (UniProt P09619); assay: flow cytometry, ligand titrated on DT40 cells displaying wild-type Tie2 ectodomain; apparent Kd
[2] = biological target: T1, Angiopoietin-2 (human, UniProt O15123 19-496, limits assumed); assay: SPR (ForteBio Octet), ectodomain-Fc immobilised; wild-type ectodomain
T1 construct: also called Ang2; biotinylated Ang2
T1 sequence (looked up): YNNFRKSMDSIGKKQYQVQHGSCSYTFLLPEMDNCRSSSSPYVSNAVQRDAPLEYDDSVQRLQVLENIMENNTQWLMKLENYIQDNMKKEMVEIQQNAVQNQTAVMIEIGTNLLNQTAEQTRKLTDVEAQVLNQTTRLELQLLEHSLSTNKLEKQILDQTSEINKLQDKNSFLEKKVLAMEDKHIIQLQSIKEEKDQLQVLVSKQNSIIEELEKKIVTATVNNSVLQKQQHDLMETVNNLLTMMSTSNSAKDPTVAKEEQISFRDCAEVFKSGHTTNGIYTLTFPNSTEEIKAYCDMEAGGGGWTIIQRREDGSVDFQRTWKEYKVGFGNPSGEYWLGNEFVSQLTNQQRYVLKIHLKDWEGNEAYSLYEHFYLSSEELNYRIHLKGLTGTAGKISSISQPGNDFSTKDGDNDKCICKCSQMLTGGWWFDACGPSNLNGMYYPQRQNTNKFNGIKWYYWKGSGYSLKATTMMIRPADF
Experimental: (§1) Surface plasmon resonance was performed using a ForteBio Octet instrument (Pall Life Sciences). Fusion proteins were immobilised at 5 μg/ml on sensors and kinetic binding assays perfoinied as detailed by the manufacturer.

[3] = biological target: T2, Angiopoietin-1 (human, UniProt Q15389 20-498, limits assumed); assay: SPR as named in the filing, panel headed 'Binding of Wt and R3 I161G mutant to Ang1', concentrations not given
T2 construct: also called Ang1; His6-tagged Ang1
T2 sequence (looked up): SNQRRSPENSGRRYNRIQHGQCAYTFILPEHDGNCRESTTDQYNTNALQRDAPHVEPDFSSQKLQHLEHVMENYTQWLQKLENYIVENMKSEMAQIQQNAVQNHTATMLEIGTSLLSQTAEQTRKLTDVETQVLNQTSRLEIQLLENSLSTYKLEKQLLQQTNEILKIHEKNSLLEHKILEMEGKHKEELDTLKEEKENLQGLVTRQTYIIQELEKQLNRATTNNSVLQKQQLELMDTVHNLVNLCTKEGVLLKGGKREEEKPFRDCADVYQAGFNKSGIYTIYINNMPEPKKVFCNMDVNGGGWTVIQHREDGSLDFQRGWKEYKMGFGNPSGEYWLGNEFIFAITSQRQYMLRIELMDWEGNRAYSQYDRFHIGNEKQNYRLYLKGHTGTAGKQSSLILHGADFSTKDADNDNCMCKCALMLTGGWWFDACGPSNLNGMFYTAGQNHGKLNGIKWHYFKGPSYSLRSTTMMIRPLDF
Experimental: as §1

[4] = biological target: T1, Angiopoietin-2; assay: SPR as named in the filing, panel headed 'Binding of R3 and R3 I161G binding to Ang2', concentrations not given
Experimental: as §1

[5] = biological target: T1, Angiopoietin-2; assay: SPR (ForteBio Octet), ectodomain-Fc immobilised; evolved (R3) ectodomain
Experimental: as §1

[6] = biological target: T2, Angiopoietin-1; assay: SPR as named in the filing (ForteBio Octet), ectodomain-Fc immobilised on the sensor, Ang1 in solution, concentrations not given
Experimental: as §1

Wild-type human Tie2 ectodomain (residues 1-442) surface expression construct on DT40 cells (human), sequence (P09619 514-562 limits assumed, form in doubt): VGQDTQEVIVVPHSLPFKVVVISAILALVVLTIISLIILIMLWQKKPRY

Angiopoietin-1 (from UniProt Q15389 20-498) (ligand)
Kd [1]: 0.7 nM

B1: Wild-type Tie2 ectodomain (1-442)-Fc fusion protein (Fc fusion)
chain (part 1 of 2): AMDLILINSLPLVSDAETSLTCIASGWRPHEPITIGRDFEALMNQHQDPLEVTQDVTREWAKKVVWKREKASKINGAYFCEGRVRGEAIRIRTMKMRQQASFLPATLTMTVDKGDNVNISFKKVLIKEEDAVIYKNGSFIHSVPRHEVPDILEVHLPHAQPQDAGVYSARYIGGNLFTSAFTRLIVRRCEAQKWGPECNHLCTACMNNGVCHEDTGECICPPGFMGRTCEKACELHTFGRTCKERCSGQEGCKSYVFCLPDPYGCSCATGWKGLQCNEACHPGFYGPDCKLRCSCNNGEMCDRFQGCLCSPGWQGLQCEREGIQRMTPKIVDLPDHIEVNSGKFNPICKASGWPLPTNEEMTLVKPDGTVLHPKDFNHTDHFSVAIFTIHRILPPDSGVWVCSVNTVAGMVEKPFNISVK
chain (part 2 of 2): HHHHHH
notes: Secreted from HEK293 cells, about 80 kDa, purified on Ni-NTA; also called wild-type ectodomain; Wt; not shown: human Fc tag
Kd [2]: 4.1 nM

B2: R3 I161G mutant Tie2 ectodomain (Glycine at 161, deleted at R167 and H168) (Fc fusion)
chain: AMDLILINSLPLVSDAETSLTCIASGWRPHEPITIGRDFEALMNQHQDPLEVTQDVTREWAKKVVWKREKASKINGAYFCEGRVRGEAIRIRTMKMRQQASFLPATLTMTVDKGDNVNISFKKVLIKEEDAVIYKNGSGIHSVPEVPDILEVHLPHAQPQDAGVYSARYIGGNLFTSAFTRLIVRRCEAQKWGPECNHLCTACMNNGVCHEDTGECICPPGFMGRTCEKACELHTFGRTCKERCSGQEGCKSYVFCLPDPYGCSCATGWKGLQCNEACHPGFYGPDCKLRCSCNNGEMCDRFQGCLCSPGWQGLQCEREGIQRMTPKIVDLPDHIEVNSGKFNPICKASGWPLPTNEEMTLVKPDGTVLHPKDFNHTDHFSVAIFTIHRILPPDSGVWVCSVNTVAGMVEKPFNISVK
notes: also called new mutant; improved Ang2 ligand-trap; not shown: the other soluble ectodomains carried a human Fc tag and His6
binding result [3]: no binding
binding result [4]: binds

B3: Evolved (R3) Tie2 ectodomain-Fc fusion protein (F161I, ΔR167, ΔH168) (Fc fusion)
chain (part 1 of 2): B2 chain with G139I
chain (part 2 of 2): HHHHHH
notes: also called R3 ectodomain; evolved ectodomain; not shown: human Fc tag
Kd [5]: 2.4 nM
binding result [6]: no binding
